Here are results for 83 variants from the RNAGym collection of RNA variant scans (doi:10.1093/molbev/msab373).

B1: Azoarcus group I ribozyme (parent)
chain: GUGCCUUGCGCCGGGAAACCACGCAAGGGAUGGUGUCAAAUUCGGCGAAACCUAAGCGCCCGCCCGGGCGUAUGGCAACGCCGAGCCAAGCUUCGGCGCCUGCGCCGAUGAAGGUGUAGAGACUAGACGGCACCCACCUAAGGCAAACGCUAUGGUGAAGGCAUAGUCCAGGGAGUGGCGAAAGUCACACAAACCGG

The series covers variants of B1. Put plainly: reverse-splicing fitness (ratio to wild type); higher = more active; in vitro selection; Mg2+ level not given. In short, it runs like this: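 An in vitro group I ribozyme library with randomized positions was T7-transcribed and gel-purified. In triplicate, 10 pmol RNA in EPPS pH 7.5 was reacted with 50 pmoles of a 30-nt RNA substrate for 1 h at 37 °C across several added MgCl2 levels (1–48 mM), then stopped with EDTA. Products were reverse transcribed from a substrate-complementary primer, PCR-amplified and sequenced (HiSeq 4000). Fitness is a variant's read proportion after selection over that before, normalised to wild type.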
In the case of C82A A120C A145U C169G U176G, the reverse-splicing fitness is 0.00482.
In the case of C82A A120C A145U C169G U176A, the reverse-splicing fitness was found to be 0.0152.
For the variant C82A A120C A145U C169G U176C, the reverse-splicing fitness was found to be 0.0191.
As for C82A A120C A145U C150U C169A U176C, the reverse-splicing fitness worked out at 0.0134.
The figure for C82A A120C A145U C150U C169A U176G is 0.00539.
As for C82A A120C A145U C150U C169A U176A, the figure is 0.0178.
C82A A120G A145G C150G C169A U176C: the reverse-splicing fitness came to 0.0128.
As for C82A A120G A145G C150G C169A U176A, the figure is 0.0138.
The figure for C82A A120G A145G C150G C169A U176G is 0.00858; for C82A A120G C150A U176C it is 0.0171.
Take C82A A120G C150A U176A: the reverse-splicing fitness was found to be 0.0118.
Turning to C82A A120G C150A U176G, the reverse-splicing fitness came out at 0.00837.
As for C82A A120G A145C C150A C169U U176C, the figure is 0.0107; as for C82A A120G A145C C150A C169U U176A, 0.0192; as for C82A A120G A145C C150A C169U U176G, 0.00478.
As for C82A A120G A145G C150U C169A, the figure is 0.0179; as for C82A A120G A145G C150U C169U, 0.016; as for C82A A120G A145G C150U C169G, 0.0197.
For the variant C82A A120G A145G C150A C169A, the reverse-splicing fitness came out at 0.0112.
As for C82A A120G A145G C150A C169U, the figure is 0.00961.
The figure for C82A A120G A145G C150A C169G is 0.0104; for C82A A120G A145C C150U C169U U176G it is 0.00407.
C82A A120G A145C C150U C169U U176A: the reverse-splicing fitness came out at 0.0197.
Take C82A A120G A145C C150U C169U U176C: the reverse-splicing fitness was determined as 0.0106.
As to C82A A120G A145C C150U C169G U176A, the reverse-splicing fitness came out at 0.0208.
As for C82A A120G A145C C150U C169G U176C, the reverse-splicing fitness turned out to be 0.0116.
The figure for C82A A120G A145C C150U C169G U176G is 0.00468; for C82A A120G A145C C169G U176G it is 0.00403.
The figure for C82A A120G A145C C169G U176A is 0.0259; for C82A A120G A145C C169G U176C it is 0.0162.
For the variant C82A A120G A145G C150A, the reverse-splicing fitness turned out to be 0.0101.
As for C82A A120G A145G C150G, the figure is 0.00892; as for C82A A120G A145G C150U, 0.0203.
As for C82A A120C C150G C169U, the reverse-splicing fitness was 0.0104.
As for C82A A120C C150G C169G, the reverse-splicing fitness worked out at 0.00866.
For C82A A120C C150G C169A, the reverse-splicing fitness is 0.0112.
Consider C82A A120G A145G C150U U176A, for which the reverse-splicing fitness came to 0.0104.
As for C82A A120G A145G C150U U176G, the reverse-splicing fitness is 0.00667.
The figure for C82A A120G A145G C150U U176C is 0.0178; for C82A A120C C169U U176A it is 0.0172; for C82A A120C C169U U176G it is 0.00416.
For the variant C82A A120C C169U U176C, the reverse-splicing fitness was 0.0151.
As for C82A A120G A145C C150A U176C, the figure is 0.00806; as for C82A A120G A145C C150A U176G, 0.00435; as for C82A A120G A145C C150A U176A, 0.00995.
As to C82A A120G C150A C169A U176C, the reverse-splicing fitness was 0.0216.
The figure for C82A A120G C150A C169A U176G is 0.00586; for C82A A120G C150A C169A U176A it is 0.0184.
Turning to C82A A120G A145G C169G, the reverse-splicing fitness stood at 0.0223.
As for C82A A120G A145G C169U, the figure is 0.0148; as for C82A A120G A145G C169A, 0.0151; as for C82A A120G A145G C150G U176C, 0.011.
For the variant C82A A120G A145G C150G U176G, the reverse-splicing fitness stood at 0.00572.
The figure for C82A A120G A145G C150G U176A is 0.00745.
As for C82A A120C C150U C169U U176G, the figure is 0.00589; as for C82A A120C C150U C169U U176A, 0.0167.
C82A A120C C150U C169U U176C: the reverse-splicing fitness came out at 0.0147.
As for C82A A120G A145G, the figure is 0.0225; as for C82A A120G A145U, 0.0219; as for C82A A120G A145C, 0.0202.
As for C82A A120C A145U U176C, the figure is 0.0639; as for C82A A120C A145U U176G, 0.00885.
The figure for C82A A120C A145U U176A is 0.0383; for C82A A120C C150G U176G it is 0.00347; for C82A A120C C150G U176C it is 0.0106.
Regarding C82A A120C C150G U176A, the reverse-splicing fitness was 0.00712.
The figure for C82A A120C U176A is 0.04; for C82A A120C U176G it is 0.00961.
Regarding C82A A120C U176C, the reverse-splicing fitness turned out to be 0.056.
As for C82A A120G C150G C169G U176A, the figure is 0.00669.
For C82A A120G C150G C169G U176G, the reverse-splicing fitness amounted to 0.00432.
As for C82A A120G C150G C169G U176C, the figure is 0.00462.
In the case of C82A A120G A145U C150G C169G U176G, the reverse-splicing fitness is 0.00378.
As for C82A A120G A145U C150G C169G U176C, the figure is 0.00552; as for C82A A120G A145U C150G C169G U176A, 0.0066; as for C82A A120G A145G C150U C169G U176G, 0.0046.
As for C82A A120G A145G C150U C169G U176A, the figure is 0.0149; as for C82A A120G A145G C150U C169G U176C, 0.0199.
On to C82A A120G A145U C150A C169G U176A, for which the reverse-splicing fitness came out at 0.0133.
Turning to C82A A120G A145U C150A C169G U176G, the reverse-splicing fitness came to 0.00358.
On to C82A A120G A145U C150A C169G U176C, for which the reverse-splicing fitness stood at 0.0154.
The figure for C82A A120C C150A C169A is 0.0115; for C82A A120C C150A C169G it is 0.0106.
